The target of data set [1] is T1, murine Notum-His (Mus musculus, UniProt Q8R116).
T1 construct: His tag; made in house
T1 sequence (Q8R116 20-503): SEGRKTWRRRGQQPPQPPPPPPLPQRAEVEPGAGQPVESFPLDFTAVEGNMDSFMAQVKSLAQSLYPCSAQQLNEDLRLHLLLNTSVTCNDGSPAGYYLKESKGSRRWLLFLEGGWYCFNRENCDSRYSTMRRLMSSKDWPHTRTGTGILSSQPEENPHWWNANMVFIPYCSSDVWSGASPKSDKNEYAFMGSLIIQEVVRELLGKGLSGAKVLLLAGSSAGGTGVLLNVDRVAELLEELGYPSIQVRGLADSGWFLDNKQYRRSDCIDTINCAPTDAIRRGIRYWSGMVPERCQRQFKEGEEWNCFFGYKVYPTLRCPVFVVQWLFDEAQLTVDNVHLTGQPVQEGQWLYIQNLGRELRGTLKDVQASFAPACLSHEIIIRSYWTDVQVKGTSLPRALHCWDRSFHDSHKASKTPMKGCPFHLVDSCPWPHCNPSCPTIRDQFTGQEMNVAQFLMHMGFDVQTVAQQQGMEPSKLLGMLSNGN
Kind of data set: Neutralization of murine Notum in 293.TCF assay. The format is cell-based. The protocol: (§1) Using the 293.TCF cells, purified SC2.D2.2 and SC2.A106 antibodies were tested for their ability to neutralize murine Notum-His or macaque Notum-Fc activity as follows. 2.5×10^4 293.TCF cells were plated per well of a 96-well tissue culture plate in 50 μL of serum-free medium. After 23 hours of serum starvation, 10 μL of DMEM+0.2% FBS containing the Notum proteins at various concentrations were mixed with 15 μL of purified antibody at various concentrations, and allowed to incubate for 5 minutes at room temperature. The 25 μL antibody/Notum mixture was then added to the 293.TCF cells. After 1 hour, 25 μL of Wnt3A or control L-cell CM were added to each well. Eighteen hours after addition of CM, 100 μL of One-Glo solution (ProMega Corp.) was added to each well. The contents of each well were mixed thoroughly to lyse the cells, 100 μL of lysate transferred to black 96-well plates, and the luminescence read after 5 minutes.

The target of data set [2] is T2, mouse Notum (construct not specified at the place of use) (mouse, UniProt Q8R116 20-503, limits assumed).
T2 construct: Purified antigen from transient transfection of mouse Notum cDNA; also called murine Notum
T2 sequence (looked up): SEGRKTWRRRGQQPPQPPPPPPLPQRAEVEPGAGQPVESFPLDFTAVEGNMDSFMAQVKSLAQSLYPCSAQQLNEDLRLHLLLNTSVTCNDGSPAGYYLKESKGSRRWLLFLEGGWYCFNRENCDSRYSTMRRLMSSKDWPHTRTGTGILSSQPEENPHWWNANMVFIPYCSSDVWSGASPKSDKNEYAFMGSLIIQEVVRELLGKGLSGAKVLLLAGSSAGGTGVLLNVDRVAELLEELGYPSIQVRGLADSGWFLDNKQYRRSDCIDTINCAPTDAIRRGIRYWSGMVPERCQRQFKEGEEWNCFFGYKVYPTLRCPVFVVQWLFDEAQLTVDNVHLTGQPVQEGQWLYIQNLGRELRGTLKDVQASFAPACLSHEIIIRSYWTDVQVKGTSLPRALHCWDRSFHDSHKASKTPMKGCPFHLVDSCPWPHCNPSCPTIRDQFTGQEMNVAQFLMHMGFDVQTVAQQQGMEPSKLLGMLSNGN
Kind of data set: ELISA, Notum coated directly on plate. For orientation: In an ELISA, binding on a coated surface is turned into a signal by an enzyme label.

Data set [3] concerns the target T3, porcine pancreatic lipase (Sus scrofa, UniProt P00591).
T3 construct: purchased Sigma Aldrich
T3 sequence (P00591 1-450): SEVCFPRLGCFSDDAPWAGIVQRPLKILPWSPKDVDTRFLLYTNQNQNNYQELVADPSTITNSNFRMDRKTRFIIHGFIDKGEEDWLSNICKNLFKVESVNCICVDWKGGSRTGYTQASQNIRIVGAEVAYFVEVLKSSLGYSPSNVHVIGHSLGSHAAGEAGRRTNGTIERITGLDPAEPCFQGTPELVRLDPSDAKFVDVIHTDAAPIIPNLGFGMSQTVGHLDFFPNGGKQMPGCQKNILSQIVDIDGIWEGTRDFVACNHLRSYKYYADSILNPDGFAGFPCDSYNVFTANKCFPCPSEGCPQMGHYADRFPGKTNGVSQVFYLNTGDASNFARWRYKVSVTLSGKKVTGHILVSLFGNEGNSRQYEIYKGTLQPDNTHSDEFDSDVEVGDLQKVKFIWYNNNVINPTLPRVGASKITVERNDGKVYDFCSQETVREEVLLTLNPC
Description: Inhibition of porcine pancreatic lipase (Tween 20). The class given is biochemical. The protocol:
(§2) Briefly, recombinant hNotum (1 μg/well) was added to an assay buffer containing 50 mM Tris, pH 7.4, 33.3 mM CaCl2, and 0.33% Tween-20. When the Tween 20 monolauryl group is cleaved by lipases (e.g. hNotum), the free fatty acid forms an insoluble complex with the Ca^2+ cations resulting in a turbid solution, the OD of which can be measured at 405 nm to provide a measure of lipase activity. As a positive control, the activity of porcine pancreatic lipase (Sigma Aldrich) was measured in the same assay.
(§3) In order to take advantage of this enzymatic property and further exemplify the properties of the present invention, an assay was run to determine the effects of Notum modulators on the lipolytic activity of Notum. To that end, various concentrations of SC2.D2.2 were preincubated with hNotum for a set period prior to adding the mixture to the assay buffer and measuring the resulting enzymatic activity as described above. The results of the assay are graphically represented in FIG. 20

In data set [4] the target is T4, hNotum (Homo sapiens, UniProt Q6P988).
T4 construct: 8x-His; Strep-tag II; IgK signal peptide/leader of the pSEC-CAG vector (N); made in house; host or cells: HEK293T (adherent) / suspension 293 cells
T4 sequence (Q6P988 20-496): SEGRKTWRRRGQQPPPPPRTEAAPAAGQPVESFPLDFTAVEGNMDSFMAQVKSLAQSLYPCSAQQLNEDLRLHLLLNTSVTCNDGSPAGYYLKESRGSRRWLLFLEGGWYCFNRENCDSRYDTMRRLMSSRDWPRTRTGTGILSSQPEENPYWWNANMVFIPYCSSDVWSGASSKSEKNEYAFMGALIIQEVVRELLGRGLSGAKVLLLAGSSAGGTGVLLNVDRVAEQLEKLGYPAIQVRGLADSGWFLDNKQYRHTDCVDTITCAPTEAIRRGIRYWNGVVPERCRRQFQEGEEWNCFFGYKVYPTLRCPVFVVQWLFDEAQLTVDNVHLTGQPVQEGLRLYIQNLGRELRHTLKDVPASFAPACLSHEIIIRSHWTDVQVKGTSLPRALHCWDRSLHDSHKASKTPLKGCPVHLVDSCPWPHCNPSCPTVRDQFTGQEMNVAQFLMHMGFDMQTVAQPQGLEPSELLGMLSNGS
Description: Inhibition of hNotum lipase activity (Tween 20). The conditions noted are these: preincubation, various concentrations. The class given is biochemical. Here is the method: as §2, §3

Data set [5] relates to HCT-116 cells. Description: Cell survival/proliferation, CellTiterGlo, HCT-116. The format is cell-based, human. Here is the method: To determine whether Notum protein impacts cell proliferation and/or apoptosis of human colorectal cancer cells, HCT-116 cells or mouse lineage-depleted NTX tumor cells (i.e. human tumor cells) were plated as described below and exposed to recombinant hNotum (e.g. hNotum-His or hNotum-hFc) and anti-Notum antibodies. Cell numbers were then assessed 12-14 days later.
Cells were then incubated for 14 days at 37° C., 5% CO2 and 5% O2 and the number of viable cells was assessed using Promega's CellTiterGlo assay kit per the manufacturer's instructions. For the HCT-116 cell line (a commercially available colorectal tumor cell line), cells were plated at 2,000 cells per well in DMEM+1% FBS, followed 24-hours later by the addition of serum free DMEM containing recombinant human Notum in the presence or absence of monoclonal antibodies SC2.D2.2 or SC2.10B3. HCT-116 cells were then incubated for 12 days at 37° C., 5% CO2 and cell viability was assessed with Promega's CellTiterGlo assay kit. Higher readings are indicative of higher viable cell counts.
(In general: ATP-based viability assays read luminescence as a measure of living cells.)

For data set [6], the system named is macaque Notum-Fc. Description: Neutralization of macaque Notum in 293.TCF assay. The format is cell-based. The protocol:
as §1

Here are results for 1 molecule from patent US20130224191A1, “NOTUM PROTEIN MODULATORS AND METHODS OF USE” (priority 2010, published 2013).

Entries after “also recorded” stand apart in the source; their conditions may differ.

B1: SC2.D2.2 (antibody, V domains shown)
VH: DVQLVESGGGLVQPGGSRKISCAASGFTFSSYGMHWVRQAPEKGLEWVAYISSSTVTTYYADTVKGRFTISRDNANNTLFLQMTSLRSEDTAMYYCSRQNWDGGYFDVWGAGTTVTVSS
VL: DIVLTQSLASLAVSLGQRATISCRASKSVSSSGYSYMHWYQQKPGQPPKLLIYLASNLESGVPARFSGSGSGTDFTLNIHPVEEEDAATYYCQHSRALPLTFGAGTKLELKR
notes: also called murine SC2.D2.2
B1: in data set [1], the “inhibition of murine Notum activity” value is “did not inhibit; also recorded: without inhibiting murine or macaque versions of the protein”. Further, the binding result in data set [2] is “no binding”. The “effect on lipase activity of porcine pancreatic lipase” value in data set [3] is “not severely impacting the lipase activity”. Moreover, in data set [4], the “effect on lipase activity of Notum” value was “substantially eliminate the lipase activity of Notum”. In addition, the “effect on hNotum induced increase in cell numbers” value in data set [5] was “blocked”. In data set [6], the “inhibition of macaque Notum activity” value is “did not inhibit; also recorded: without inhibiting murine or macaque versions of the protein”.
